Laboratory results from US7527809B2, “Polyhydroxyalkanoate-containing magnetic structure, and manufacturing method and use thereof” (Canon Kabushiki Kaisha, priority 2003, dated 2009).

Assay: PHA synthetic enzyme activity (CoA release, 5,5'-dithiobis-(2-nitrobenzoic acid))
Assay type: biochemical
Conditions: purified enzymes, Table 1
Excerpt: Measurement of activity of PHA synthetic enzyme may be performed by using various known methods. For example, the measurement may be performed by the following method that is based on a measuring principle in that CoA released during polymerization of 3-hydroxyacyl CoA by the catalytic action of PHA synthetic enzyme to obtain PHA forms a color with 5,5′-dithiobis-(2-nitrobenzoic acid). Reagent 1: bovine serum albumin (manufactured by Sigma) dissolved in 0.1 M Tris hydrochloride buffer (pH 8.0) 3.0 mg/ml; Reagent 2: 3-hydroxyoctanoyl CoA dissolved in 0.1 M Tris hydrochloride buffer (pH 8.0) in 3.0 mM; Reagent 3: Trichloroacetic acid dissolved in 0.1 M Tris hydrochloride buffer (pH 8.0) in 10 mg/ml; Reagent 4: 5,5′-dithiobis-(2-nitrobenzoic acid) dissolved in 0.1 M Tris hydrochloride buffer (pH 8.0) in 2.0 mM. First reaction (PHA synthesis reaction): 100 μl of Reagent 1 is added to 100 μl of a sample (enzyme) solution and mixed. […] 500 μl of Reagent 4 is added to 500 μl of the resultant supernatant and the resultant is incubated at 30° C. for 10 minutes and then measured for optical density (absorbance) at 412 nm. […]
The activity of each purified enzyme was measured according to the method described above. Further, protein concentration in the sample was determined using a micro BCA protein assay reagent kit (available from Pierce Chemical Inc.). […]

- Activity: 2.1 U/ml
B1: Purified enzyme solution (2): purified PHA synthetic enzyme YN2-C1 from pYN2-C1 (protein)
chain: MSNKSNDELKYQASENTLGLNPVVGLRGKDLLASARMVLRQAIKQPVHSVKHVAHFGLELKNVLLGKSGLQPTSDDRRFADPAWSQNPLYKRYLQTYLAWRKELHDWIDESNLAPKDVARGHFVINLMTEAMAPTNTAANPAAVKRFFETGGKSLLDGLSHLAKDLVHNGGMPSQVNMGAFEVGKSLGVTEGAVVFRNDVLELIQYKPTTEQVYERPLLVVPPQINKFYVFDLSPDKSLARFCLRNNVQTFIVSWRNPTKEQREWGLSTYIEALKEAVDVVTAITGSKDVNMLGACSGGITCTALLGHYAAIGENKVNALTLLVSVLDTTLDSDVALFVNEQTLEAAKRHSYQAGVLEGRDMAKVFAWMRPNDLIWNYWVNNYLLGNEPPVFDILFWNNDTTRLPAAFHGDLIELFKNNPLIRPNALEVCGTPIDLKQVTADIFSLAGTNDHITPWKSCYKSAQLFGGNVEFVLSSSGHIQSILNPPGNPKSRYMTSTEVAENADEWQANATKHTDSWWLHWQAWQAQRSGELKKSPTKLGSKAYPAGEAAPGTYVHER
modifications: Pseudomonas cichorii YN2; FERM BP-7375
- Relative activity: 4.1 U/mg protein
